Experiments:
[1] = molecular target: T1, CB1 receptor (Homo sapiens, UniProt P21554); assay: CB1 receptor FLIPR dose response in CB1-transfected CHEM-1 cells; type: cell-based; conditions: pHS vector (FIG. 10D)
T1 construct: ER export signal […]; expressed in transfected cells; host or cells: CHEM-1 (RBL-2H3) cells, pHS vector
Procedure: FIG. 10D is a graph depicting the agonist-induced CB1 receptor FLIPR® dose response for CB1-transfected CHEM-1 cells using the pHS vector.
Cells (50,000/well) were seeded in a 96 well FLIPR® plate (clear bottom, black wall TC plate) the day before the experiment, and then loaded with fluorescent calcium dye Fluo-4 or Indo-1 (Molecular Probes) and incubated for 30 minutes at 37° C. in the dark with Pluronic F-127 and Probenecid in HBSS buffer (with Ca^2+ and Mg^2+). The cells were then washed twice with HBSS and read for calcium mobilization after the ligand addition on FLEX Station or FLIPR®. The loading efficiency and integrity of the Ca^2+ flux assay were assessed by comparing the signaling response to ionomycin treatment before and after each run.

[2] = molecular target: T2, CXCR2 (Homo sapiens, UniProt P25025); assay: CXCR2 membrane radioligand (125I-Groα) competition binding; conditions: two site binding curve, FIG. 8A (pcDNA3/CHO membranes); 0.5 nM 125I-Groα; matches high affinity sites of FIG. 8B
T2 construct: expressed in transfected cells; host or cells: CHO cells, pcDNA3 vector, crude membranes of stably transfected cells
T2 sequence (P25025 1-360): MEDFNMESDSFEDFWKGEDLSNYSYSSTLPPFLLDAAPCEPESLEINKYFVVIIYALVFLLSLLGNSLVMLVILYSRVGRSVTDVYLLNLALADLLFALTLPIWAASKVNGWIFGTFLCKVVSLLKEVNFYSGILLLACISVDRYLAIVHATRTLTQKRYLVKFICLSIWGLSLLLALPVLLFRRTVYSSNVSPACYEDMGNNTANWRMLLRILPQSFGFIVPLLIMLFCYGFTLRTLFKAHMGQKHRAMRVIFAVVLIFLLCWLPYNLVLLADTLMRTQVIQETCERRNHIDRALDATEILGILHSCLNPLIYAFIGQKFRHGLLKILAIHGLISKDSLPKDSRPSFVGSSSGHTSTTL
Procedure: After 2 hours of incubation at room temperature, membranes were harvested to a 96-well GF/C filter plate, dried and counted using a Microbeta counter.
1-5 μg/well of crude membrane protein was thawed and combined with 50,000 to 100,000 cpm of radioligand (2200 Ci/mmol) and cold competitors in assay buffer (50 mM Hepes, 5 mM MgCl2, 1 mM CaCl2, 0.2% BSA) for 2 hours at 25° C. Reactions were performed in 96-well GF/C glass fiber filter plates (PerkinElmer, Cat. No. 6005174, Wellesley, Mass.). Binding was terminated by adding 100 μl/well of wash buffer (50 mM Hepes, pH 7.4, 500 mM NaCl, 0.1% BSA) and aspiration through the plate on a cell harvester, followed by three 0.2 ml washes with wash buffer. The filter plate was then dried and counted on a Microbeta liquid scintillation counter (PerkinElmer, Wellesley, Mass.).

[3] = molecular target: T2, CXCR2; assay: CXCR2 membrane radioligand (125I-Groα) saturation binding; conditions: membranes of CHO cells transfected with CXCR2, pcDNA3 vector; 125I-Groα 0-2 nM (FIG. 7A)
Procedure: (§1) FIG. 7A is a graph depicting CXCR2 membrane radioligand saturation binding for membranes of CHO cells transfected with CXCR2 encoded by the mammalian expression vector pcDNA3. Specifically, 5 μg of GPCR membrane preps were incubated with increasing concentrations (0-2 nM) of ^125I-labeled ligand Groα (PerkinElmer, Wellesley, Mass.) in the absence or presence of an excess amount of cold ligand Groα.
as §1, with “7B” for “7A”, “CHEM-1” for “CHO”, “the” for “the mammalian”, “pHS.” for “pcDNA3.”, “preparation was” for “preps were”
1-5 μg/well of crude membrane protein was thawed and combined with 50,000 to 100,000 cpm of radioligand (2200 Ci/mmol) and cold competitors in assay buffer (50 mM Hepes, 5 mM MgCl2, 1 mM CaCl2, 0.2% BSA) for 2 hours at 25° C. Reactions were performed in 96-well GF/C glass fiber filter plates (PerkinElmer, Cat. No. 6005174, Wellesley, Mass.). […] The filter plate was then dried and counted on a Microbeta liquid scintillation counter (PerkinElmer, Wellesley, Mass.). […]

T1 sequence (P21554 whole entry): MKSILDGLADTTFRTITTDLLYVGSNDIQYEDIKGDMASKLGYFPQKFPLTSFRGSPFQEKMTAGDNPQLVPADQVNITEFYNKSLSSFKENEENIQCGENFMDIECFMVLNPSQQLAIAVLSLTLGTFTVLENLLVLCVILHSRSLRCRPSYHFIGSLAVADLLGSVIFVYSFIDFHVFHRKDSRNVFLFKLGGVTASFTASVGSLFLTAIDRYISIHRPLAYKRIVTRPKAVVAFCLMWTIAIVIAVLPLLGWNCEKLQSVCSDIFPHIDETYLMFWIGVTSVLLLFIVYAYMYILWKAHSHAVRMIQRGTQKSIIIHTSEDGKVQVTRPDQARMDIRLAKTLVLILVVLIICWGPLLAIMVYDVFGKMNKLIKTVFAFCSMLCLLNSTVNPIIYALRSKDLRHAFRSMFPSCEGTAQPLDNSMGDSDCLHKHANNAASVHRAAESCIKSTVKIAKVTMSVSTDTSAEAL

In the case of CCCCCCC(C)(C)c1ccc([C@@H]2C[C@H](O)CC[C@H]2CCCO)c(O)c1 [CP55940], the “agonist type (efficacy) in FLIPR dose response” value [1] is reported as “partial agonists”.

In the case of Groα, the Ki [2] is reported as 0.22 nM and the Kd [3] is reported as 0.148 nM.
